Tests used:
[1] = target: inter-α-inhibitor (IαI) (human) (UniProt P02760); assay: cell-based or functional assay
[2] = target: inter-α-inhibitor (IαI) (human) (UniProt P02760)

Sequence of UniProt P02760 (P02760 206-352): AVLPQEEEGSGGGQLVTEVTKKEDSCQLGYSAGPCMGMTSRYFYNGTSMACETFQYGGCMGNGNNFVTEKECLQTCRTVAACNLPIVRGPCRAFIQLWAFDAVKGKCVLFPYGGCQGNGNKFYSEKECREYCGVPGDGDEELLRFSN

HC transfer to Cov-HA in the presence of 50 nM TSG-6, plasma dilution series [1]: 200 pM | decrease in HC transfer to Cov-HA in the presence of 50 nM TSG-6, plasma dilution 1:4000 [1]: 50% | transfer of HCs from IαI in human plasma (1:1000) to Cov-HA, detected with anti-HC antibody [1]: 16 µM | EC50 (read off the curve): TSG-6 concentration for half-maximal HC transfer from plasma IαI (1:1000) to Cov-HA [2]: 0.4 nM
Substance: TNF-stimulated gene 6 protein (TSG-6), recombinant (from UniProt P98066 18-277)

Reference: US20120064150A1
